Assay results: patent US20140273151

Target: T1, Substrate No. 19
T1 chain: DEVD

B1: caspase-3 enzyme (Biovision Inc., Mountain View, Calif.) (protein)
chain: SGISLDNSYKMDYPEMGLCIIINNKNFHKSTGMTSRSGTDVDAANLRETFRNLKYEVRNKNDLTREEIVELMRDVSKEDHSKRSSFVCVLLSHGEEGIIFGTNGPVDLKKITNFFRGDRCRSLTGKPKLFIIQACRGTELDCGIETDSGVDDDMACHKIPVEADFLYAYSTAPGYYSWRNSKDGSWFIQSLCAMLKQYADKLEFMHILTRVNRKVATEFESFSFDATFHAKKQIPCIVSMLTKELYFYH
fluorescence signal over time (excitation 485 nm, emission 530 nm) in the presence of dsDNA; enzymatic cleavage assay: The data demonstrates that Substrate No. 19 is a substrate for caspase-3 enzyme.
